In paper doi:10.1101/2024.06.21.600001 (bioRxiv, 2024):

Experiments:
Assay in all cases: immunostaining of cells or tissue
Settings in all cases: one partner purified
[1] = molecular target: T1, Bundibugyo ebolavirus glycoprotein (BDBV GP), full-length transmembrane (Bundibugyo ebolavirus (YP_003815435.1), UniProt B8XCN0)
T1 construct: source: MDCK SIAT-1 cells expressing BDBV GP, on the cell surface

[2] = molecular target: T2, Sudan ebolavirus glycoprotein (SUDV GP), full-length transmembrane (Sudan ebolavirus (SUDV), UniProt Q7T9D9)
T2 construct: source: MDCK SIAT-1 cells expressing SUDV GP, on the cell surface

[3] = molecular target: T3, Zaire ebolavirus glycoprotein (EBOV GP), full-length transmembrane, Mayinga (Zaire ebolavirus (EBOV), Mayinga, UniProt Q05320)
T3 construct: source: MDCK SIAT-1 cells expressing EBOV GP, on the cell surface

[4] = molecular target: Tai Forest ebolavirus glycoprotein (TAFV GP) (Tai Forest ebolavirus (TAFV), UniProt Q66810)
[5] = molecular target: Reston ebolavirus glycoprotein (RESTV GP) (Reston ebolavirus, isolate ; …, UniProt Q66799)

Measured: binding result

B1: mAb 11883, recombinant rabbit IgG (antibody, V domains shown)
VH: QEQLVESGGGLVQPEGSLTLTCTASGFSFSSNCWRCWVRQAPGKGLEWIACVCAGRSGGTTYYASWAKGRFTISKTSSPTVTLQMTSLTAADTATYFCARAGYDDYGDASFFNLWGPGTLVTVS
VL: AVVLTQTASPVSTPVGGTVTIKCQASQNIYSNLAWYQQKPGQPPKLLIYSASTLASGVPSRFKGSGSGTEYTLTISDLECADAATYYCQRYYYLSGSADNTFGGGTEVVVK
notes: source: HEK293F, transfected, purified (Protein A); copies: 2 + 2
binds: [1] | [2] | [3] | [4] | [5]

B2: mAb 11886, recombinant rabbit IgG (antibody, V domains shown)
VH: QSVEESGGRLVTPGTPLTLTCIVSGFSLSNYYMSWVRQVPGKGLEWIGVIGWSGTSSYASWAKGRFTISKTASTTVDLKITSPTTEDTATYFCARVLYIGGGFNYYDAFDPWGPGTLVTVS
VL: DVVMTQTPASVSEPVGGTVTIKCQASQSIGSNLAWYQQKPGQPPKLLIYAASTLASGVPSRFKGSGSGTEFTLTISDLECADAATYYCQCTYYDSSYVYNNFGGGTEVVVK
notes: as for B1
binds: [1] | [2] | [3] | [4] | [5]
